# Measurements from patent publication US20240116985A1, “STAPLED PEPTIDES AND METHODS THEREOF” (priority 2020, published 2024).
# Starred links: 1 amine or outer side, 2 acyl side, 3 side chain; linkers in the order of their positions; H or OH if unused. Positions of bridges follow the written chain, without caps; N, C: chain ends. Non-standard residues stand in square brackets, D forms with d. Primed or numbered codes have the meaning given here. No end group written: not given here. *: point of attachment. PyrS2″ = (S)-3-amino-1-((pent-4-en-1-yloxy)carbonyl)pyrrolidine-3-carboxylic acid (stapling residue), C=CCCCOC(=O)N1CC[C@@](N[*:1])(C(=O)[*:2])C1; B5(23) = 2-amino-2-(pent-4-en-1-yl)hept-6-enoic acid (2,2-bis(4-pentenyl)glycine), stitching residue, C=CCCCC(CCCC=C)(N[*:1])C(=O)[*:2]; B5(4) = 2,2-bis(4-pentenyl)glycine = 2-amino-2-(pent-4-en-1-yl)hept-6-enoic acid (stitching residue), C=CCCCC(CCCC=C)(N[*:1])C(=O)[*:2]; B5(5) = 2,2-bis(4-pentenyl)glycine, 2-amino-2-(pent-4-en-1-yl)hept-6-enoic acid (stitching residue), C=CCCCC(CCCC=C)(N[*:1])C(=O)[*:2]; TfeGA(3) = (S)-2-amino-3-((carboxymethyl)(2,2,2-trifluoroethyl)amino)prop[anoic acid], O=C([C@H](CN(CC(=O)[*:3])CC(F)(F)F)N[*:1])[*:2]; PyrS2 = (S)-3-amino-1-((pent-4-en-1-yloxy)carbonyl)pyrrolidine-3-carboxylic acid, C=CCCCOC(=O)N1CC[C@@](N[*:1])(C(=O)[*:2])C1; B5(3) = 2,2-bis(4-pentenyl)glycine (stitching residue), C=CCCCC(CCCC=C)(N[*:1])C(=O)[*:2]; ProSAm3 = (allylsulfonyl)-D-proline, C=CCS(=O)(=O)N1CCC[C@@H]1C(=O)*; Phe(3-COOH) = N[C@@H](Cc1cccc(C(=O)O)c1)C(=O)O; Phe(4-COOH) = N[C@@H](Cc1ccc(C(=O)O)cc1)C(=O)O; Phe(2-CF3) = N[C@@H](Cc1ccccc1C(F)(F)F)C(=O)O; Abu(4,4,4-F3) = N[C@@H](CC(F)(F)F)C(=O)O; Ala(2-furyl) = N[C@@H](Cc1ccco1)C(=O)O; Bta = N[C@@H](Cc1csc2ccccc12)C(=O)O; αAllylPro = C=CC[C@@]1(C(=O)O)CCCN1; tBuAla = CC(C)(C)C[C@H](N)C(=O)O; 2Thi = N[C@@H](Cc1cccs1)C(=O)O; 3Thi = N[C@@H](Cc1ccsc1)C(=O)O; Cit = NC(=O)NCCC[C@H](N)C(=O)O; S8 = C=CCCCCCC[C@](C)(N)C(=O)O; R5 = C=CCCC[C@@](C)(N)C(=O)O; 2F3MeF(3) = Phe analogue; Dab = NCC[C@H](N)C(=O)O; Abu = CC[C@H](N)C(=O)O; Dap = NC[C@H](N)C(=O)O; Acryloyl = C=CC(=O)*
# B1: I-1576 (peptide)
# peptide: [ProSAm3]D[tBuAla][B5(4)]DDAAFN[PyrS2″][3Thi][Bta]Q-NH2
# modifications: staple (positions not given here); staple 4-11; not fully specified (bridges); printed as ProSAm3-Asp-Npg-B5-Asp-Asp-Ala-Ala-Phe-Asn-PyrS2-3Thi-BztA-Gln-NH2; also: staple isomer of earlier-eluting HPLC peak
# B2: I-1567 (peptide)
# peptide: Ac-[αAllylPro]D[tBuAla][B5(23)]NQAAFN[PyrS2][3Thi][Bta]Q-NH2
# modifications: staple 1-4, 4-11; not fully specified; printed as Ac-PL3-Asp-Npg-B5-Asn-Gln-Ala-Ala-Phe-Asn-PyrS2-3Thi-BztA-Gln-NH2
# B3: I-1577 (peptide)
# peptide: [ProSAm3]D[tBuAla][B5(4)]DDAAFN[PyrS2″][3Thi][Bta]Q-NH2
# modifications: staple (positions not given here); staple 4-11; not fully specified (bridges); printed as ProSAm3-Asp-Npg-B5-Asp-Asp-Ala-Ala-Phe-Asn-PyrS2-3Thi-BztA-Gln-NH2; also: staple isomer of later-eluting HPLC peak
# Target: full-length beta-Catenin (Uniprot ID P35222) (Homo sapiens (Human)) (UniProt P35222)
# Assay: fluorescence polarization competition; full-length beta-catenin with 5FAM-TCF4(10-53) probe as competitor
row,IC50 [nM],Binder
1,5000,"Ac-[αAllylPro]DI[B5(4)]DDAAFQ[S8][Dap](Acryloyl)[Bta]Q-NH2 (staple 1-4, 4-11; also: later eluting isomer) [I-484]"
2,43,"Ac-[αAllylPro]DI[B5(4)]DEAA[2Thi]Q[S8]F[Bta]H-NH2 (staple 1-4, 4-11) [I-488]"
3,118,"Ac-[αAllylPro]DI[B5(4)]DDAAFQ[S8]F[Bta][Dab]-NH2 (staple 1-4, 4-11) [I-482]"
4,123,"Ac-[αAllylPro]DA[B5(4)]D[TfeGA(3)]AAFQ[S8]F[Bta]H-NH2 (staple 1-4, 4-11) [I-499]"
5,176,"Ac-[αAllylPro]DI[B5(4)]D[TfeGA(3)]AAFQ[S8]F[Bta]H-NH2 (staple 1-4, 4-11) [I-500]"
6,88,"Ac-[αAllylPro]DA[B5(4)]DEAAFQ[S8]F[Bta][Ala(2-furyl)]-NH2 (staple 1-4, 4-11) [I-490]"
7,43,"Ac-[αAllylPro]D[Abu][B5(4)]DEAAFN[S8]F[Bta]Q-NH2 (staple 1-4, 4-11) [I-474]"
8,45,"Ac-[αAllylPro]DA[B5(4)]DEAA[2Thi]Q[S8]F[Bta]Q-NH2 (staple 1-4, 4-11; also: later eluting isomer) [I-487]"
9,57,"Ac-[αAllylPro]DI[B5(4)]DDAA[2Thi]Q[S8]F[Bta]H-NH2 (staple 1-4, 4-11) [I-489]"
10,253,"Ac-[αAllylPro]DI[B5(5)]D[Phe(4-COOH)]AAFQ[S8]F[Bta]Q-NH2 (staple 1-4, 4-11) [I-607]"
11,94,"Ac-[αAllylPro]D[Abu(4,4,4-F3)][B5(4)]DEAAFQ[S8]F[Bta]Q-NH2 (staple 1-4, 4-11; also: earlier eluting isomer) [I-501]"
12,5000,"Ac-[αAllylPro]DI[B5(4)]DDAAFQ[S8][Dap](Acryloyl)[Bta]Q-NH2 (staple 1-4, 4-11; also: earlier eluting isomer) [I-483]"
13,692,"Ac-[αAllylPro]DI[B5(5)]D[Cit]AAFQ[S8]F[Bta]Q-NH2 (staple 1-4, 4-11; also: staple isomer, earlier eluting HPLC peak) [I-604]"
14,632,"Ac-[αAllylPro]DI[B5(5)]D[Cit]AAFQ[S8]F[Bta]Q-NH2 (staple 1-4, 4-11) [I-605]"
15,289,"Ac-[αAllylPro]DI[B5(5)]D[Phe(4-COOH)]AAFQ[S8]F[Bta]Q-NH2 (staple 1-4, 4-11; also: staple isomer, earlier eluting HPLC peak) [I-606]"
16,121,"Ac-[αAllylPro]D[Abu][B5(4)]DEAAFN[S8]F[Bta]Q-NH2 (staple 1-4, 4-11) [I-473]"
17,147,"Ac-[αAllylPro]DA[B5(4)]DEAA[2Thi]Q[S8]F[Bta]Q-NH2 (staple 1-4, 4-11; also: earlier eluting isomer) [I-486]"

# Target: full-length beta-Catenin (Uniprot ID P35222) (Homo sapiens (Human)) (UniProt P35222)
# Assay: fluorescence polarization competition; displacement of 5FAM-TCF4(10-53) from full-length beta-catenin
# Target sequence in this assay (P35222 whole entry): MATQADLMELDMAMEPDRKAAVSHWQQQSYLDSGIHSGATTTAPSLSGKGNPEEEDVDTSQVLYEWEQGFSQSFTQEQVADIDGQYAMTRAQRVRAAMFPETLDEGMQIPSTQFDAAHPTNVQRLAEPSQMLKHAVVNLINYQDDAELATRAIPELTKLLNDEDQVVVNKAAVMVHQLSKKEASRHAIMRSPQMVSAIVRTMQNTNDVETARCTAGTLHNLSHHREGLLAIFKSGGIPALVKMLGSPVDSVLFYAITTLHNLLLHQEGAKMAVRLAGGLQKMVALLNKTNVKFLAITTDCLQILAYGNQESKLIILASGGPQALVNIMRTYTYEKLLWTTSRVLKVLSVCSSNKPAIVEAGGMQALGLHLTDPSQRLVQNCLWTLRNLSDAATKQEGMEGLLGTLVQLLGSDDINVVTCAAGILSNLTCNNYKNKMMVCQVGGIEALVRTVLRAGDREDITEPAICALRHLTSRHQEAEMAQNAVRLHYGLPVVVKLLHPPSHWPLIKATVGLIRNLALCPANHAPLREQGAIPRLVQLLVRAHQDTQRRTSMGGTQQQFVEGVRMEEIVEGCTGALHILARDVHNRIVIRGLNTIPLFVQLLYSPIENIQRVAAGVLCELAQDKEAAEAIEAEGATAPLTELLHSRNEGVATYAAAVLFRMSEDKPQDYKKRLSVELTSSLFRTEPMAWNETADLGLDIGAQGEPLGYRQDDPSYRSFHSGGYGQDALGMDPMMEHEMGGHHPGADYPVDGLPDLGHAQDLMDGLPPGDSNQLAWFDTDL
row,EC50 [nM],Binder
1,5000,"Ac-[αAllylPro]DI[B5(4)]DDAAFQ[S8][Dap](Acryloyl)[Bta]Q-NH2 (staple 1-4, 4-11; also: later eluting isomer) [I-484]"
2,43,"Ac-[αAllylPro]DI[B5(4)]DEAA[2Thi]Q[S8]F[Bta]H-NH2 (staple 1-4, 4-11) [I-488]"
3,118,"Ac-[αAllylPro]DI[B5(4)]DDAAFQ[S8]F[Bta][Dab]-NH2 (staple 1-4, 4-11) [I-482]"
4,123,"Ac-[αAllylPro]DA[B5(4)]D[TfeGA(3)]AAFQ[S8]F[Bta]H-NH2 (staple 1-4, 4-11) [I-499]"
5,176,"Ac-[αAllylPro]DI[B5(4)]D[TfeGA(3)]AAFQ[S8]F[Bta]H-NH2 (staple 1-4, 4-11) [I-500]"
6,88,"Ac-[αAllylPro]DA[B5(4)]DEAAFQ[S8]F[Bta][Ala(2-furyl)]-NH2 (staple 1-4, 4-11) [I-490]"
7,43,"Ac-[αAllylPro]D[Abu][B5(4)]DEAAFN[S8]F[Bta]Q-NH2 (staple 1-4, 4-11) [I-474]"
8,45,"Ac-[αAllylPro]DA[B5(4)]DEAA[2Thi]Q[S8]F[Bta]Q-NH2 (staple 1-4, 4-11; also: later eluting isomer) [I-487]"
9,57,"Ac-[αAllylPro]DI[B5(4)]DDAA[2Thi]Q[S8]F[Bta]H-NH2 (staple 1-4, 4-11) [I-489]"
10,94,"Ac-[αAllylPro]D[Abu(4,4,4-F3)][B5(4)]DEAAFQ[S8]F[Bta]Q-NH2 (staple 1-4, 4-11; also: earlier eluting isomer) [I-501]"
11,5000,"Ac-[αAllylPro]DI[B5(4)]DDAAFQ[S8][Dap](Acryloyl)[Bta]Q-NH2 (staple 1-4, 4-11; also: earlier eluting isomer) [I-483]"
12,121,"Ac-[αAllylPro]D[Abu][B5(4)]DEAAFN[S8]F[Bta]Q-NH2 (staple 1-4, 4-11) [I-473]"
13,147,"Ac-[αAllylPro]DA[B5(4)]DEAA[2Thi]Q[S8]F[Bta]Q-NH2 (staple 1-4, 4-11; also: earlier eluting isomer) [I-486]"

# Target: full-length beta-Catenin (Uniprot ID P35222) (Homo sapiens (Human)) (UniProt P35222)
# Assay: fluorescence polarization competition; full-length beta-catenin, competitor 5FAM-TCF4(10-53) probe
# Target sequence in this assay (P35222 whole entry): as above
row,EC50 [nM],Binder
1,253,"Ac-[αAllylPro]DI[B5(5)]D[Phe(4-COOH)]AAFQ[S8]F[Bta]Q-NH2 (staple 1-4, 4-11) [I-607]"
2,692,"Ac-[αAllylPro]DI[B5(5)]D[Cit]AAFQ[S8]F[Bta]Q-NH2 (staple 1-4, 4-11; also: staple isomer, earlier eluting HPLC peak) [I-604]"
3,632,"Ac-[αAllylPro]DI[B5(5)]D[Cit]AAFQ[S8]F[Bta]Q-NH2 (staple 1-4, 4-11) [I-605]"
4,289,"Ac-[αAllylPro]DI[B5(5)]D[Phe(4-COOH)]AAFQ[S8]F[Bta]Q-NH2 (staple 1-4, 4-11; also: staple isomer, earlier eluting HPLC peak) [I-606]"

# Target: full-length beta-Catenin (Uniprot ID P35222) (Homo sapiens (Human)) (UniProt P35222)
# Assay: fluorescence polarization competition; full-length beta-catenin, 5FAM-TCF4(10-53) probe as competitor
# Target sequence in this assay (P35222 2-781 limits assumed): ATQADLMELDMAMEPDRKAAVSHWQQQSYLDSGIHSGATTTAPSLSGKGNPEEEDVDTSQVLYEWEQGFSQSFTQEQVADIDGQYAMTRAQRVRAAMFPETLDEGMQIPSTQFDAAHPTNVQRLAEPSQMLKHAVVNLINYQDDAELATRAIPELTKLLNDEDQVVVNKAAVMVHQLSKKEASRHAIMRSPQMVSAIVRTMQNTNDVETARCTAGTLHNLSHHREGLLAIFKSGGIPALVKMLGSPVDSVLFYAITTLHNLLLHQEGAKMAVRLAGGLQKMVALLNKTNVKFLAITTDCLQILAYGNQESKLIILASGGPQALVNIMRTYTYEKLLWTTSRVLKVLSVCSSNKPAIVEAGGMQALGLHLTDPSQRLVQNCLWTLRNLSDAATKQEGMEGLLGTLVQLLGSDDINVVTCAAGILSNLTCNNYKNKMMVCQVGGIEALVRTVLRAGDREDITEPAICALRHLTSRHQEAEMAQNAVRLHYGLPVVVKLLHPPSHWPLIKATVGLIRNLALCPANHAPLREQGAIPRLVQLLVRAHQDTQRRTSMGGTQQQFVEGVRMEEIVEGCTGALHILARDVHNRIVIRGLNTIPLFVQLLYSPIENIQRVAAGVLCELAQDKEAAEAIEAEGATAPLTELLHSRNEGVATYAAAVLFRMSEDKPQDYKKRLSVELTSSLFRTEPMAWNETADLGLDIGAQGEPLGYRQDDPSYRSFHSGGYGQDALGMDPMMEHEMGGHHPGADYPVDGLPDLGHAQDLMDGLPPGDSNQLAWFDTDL
row,IC50 [nM],Binder
1,2660,"Ac-[αAllylPro]D[tBuAla][B5(4)]NYAAFN[PyrS2][3Thi][Bta]Q-NH2 (staple 1-4, 4-11; also: staple isomer of later-eluting HPLC peak) [I-1569]"
2,416,Ac-PD[tBuAla][R5]DDAAFL[PyrS2][3Thi][Bta]Q-NH2 (staple 4-11; also: staple -CH=CH- reduced to -CH2-CH2-) [I-1810]
3,342,"Ac-[αAllylPro]D[tBuAla][B5(23)]NNAAFL[PyrS2][3Thi][Bta]Q-NH2 (staple 1-4, 4-11) [I-1557]"
4,1340,"Ac-[αAllylPro]D[tBuAla][B5(4)]NLAAFN[PyrS2][3Thi][Bta]Q-NH2 (staple 1-4, 4-11) [I-1570]"
5,5020,"Ac-[αAllylPro]D[tBuAla][B5(4)]LNAAFN[PyrS2][3Thi][Bta]Q-NH2 (staple 1-4, 4-11; also: staple isomer of earlier-eluting HPLC peak) [I-1562]"
6,224,B1
7,2850,"Ac-[αAllylPro]D[tBuAla][B5(4)]LNAAFN[PyrS2][3Thi][Bta]Q-NH2 (staple 1-4, 4-11; also: staple isomer of later-eluting HPLC peak) [I-1563]"
8,9680,"Ac-[αAllylPro]D[tBuAla][B5(4)]TNAAFN[PyrS2][3Thi][Bta]Q-NH2 (staple 1-4, 4-11) [I-1559]"
9,7180,"Ac-[αAllylPro]D[tBuAla][B5(4)]NYAAFN[PyrS2][3Thi][Bta]Q-NH2 (staple 1-4, 4-11; also: staple isomer of earlier-eluting HPLC peak) [I-1568]"
10,164,"Ac-[αAllylPro]D[tBuAla][B5(3)]D[Phe(3-COOH)]QAFL[PyrS2″][2F3MeF(3)][SbMe2NapA]A-NH2 (staple 1-4, 4-11) [Ac-PL3-Asp-Npg-B5-Asp-3COOHF-Gln-Ala-Phe-Leu-PyrS2-2F3MeF-SbMe2NapA-Ala-NH2]"
11,182,B2
12,2600,"Ac-[αAllylPro]D[tBuAla][B5(4)]SNAAFN[PyrS2][3Thi][Bta]Q-NH2 (staple 1-4, 4-11) [I-1561]"
13,368,"Ac-[αAllylPro]D[tBuAla][B5(4)]QNAAFN[PyrS2][3Thi][Bta]Q-NH2 (staple 1-4, 4-11) [I-1560]"
14,45,B3
15,231,"Ac-[αAllylPro]D[tBuAla][B5(23)]NQAAFN[PyrS2][3Thi][Bta]Q-NH2 (staple 1-4, 4-11; also: earlier-eluting HPLC staple isomer) [I-1566]"
16,678,"Ac-[αAllylPro]D[tBuAla][B5(4)]QQAAFN[PyrS2][3Thi][Bta]Q-NH2 (staple 1-4, 4-11) [I-1558]"
17,47,"Ac-[αAllylPro]D[tBuAla][B5(3)]D[Phe(3-COOH)]QAFL[PyrS2″][Phe(2-CF3)][RbMe2NapA]A-NH2 (staple 1-4, 4-11) [Ac-PL3-Asp-Npg-B5-Asp-3COOHF-Gln-Ala-Phe-Leu-PyrS2-2F3MeF-RbMe2NapA-Ala-NH2]"
18,385,"Ac-[αAllylPro]DA[B5(23)]NNAAFN[PyrS2][3Thi][Bta]Q-NH2 (staple 1-4, 4-11) [I-1556]"
